# Changes are numbered by the printed parent chain.
# T1: Soluble ASGR-1 (human, UniProt P07306 62-291, biotinylated)
# T1 construct: Soluble recombinant protein; also called recombinant, soluble ASGR-1 biotinylated protein
# T1 sequence: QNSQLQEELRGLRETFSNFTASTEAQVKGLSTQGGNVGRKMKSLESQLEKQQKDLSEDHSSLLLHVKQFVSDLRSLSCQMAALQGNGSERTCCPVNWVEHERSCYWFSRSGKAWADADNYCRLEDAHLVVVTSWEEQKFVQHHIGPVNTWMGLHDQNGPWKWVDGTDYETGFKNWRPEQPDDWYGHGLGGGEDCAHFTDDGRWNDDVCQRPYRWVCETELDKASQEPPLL
# B1: 4H6 (antibody, V domains shown)
# VH: QVQLVQSGAEVKKPGASVKVSCKASGYTFTDYYLHWVRQAPGQGLEWMGWIHPNSGGTNYAQKFQGRVTMTRDTSISTAYMGLSSLRSDDTAVYYCARDGTSSFDYWGQGTLVTVSS
# VL: DIQMTQSPSSVSASVGDRVTITCRASQGISRWLAWYQQKPGKAPKLLIYGASSLQSGVPSRFSGSGSGTDFTLTISSLQPEDFAIYYCQQANSFPFTFGPGTKVDIK
# notes: Tested as hybridoma supernatant at normalized concentration
# B2: 56E5 (antibody, V domains shown)
# VH: QVQLVQSGAEVKKPGASVKVSCQASGYTFTGYHMHWVRQAPGQGLEWMGWINPNNNATNYAQKFQGRVTMTRDTSISTAYMELRRLRSDDTAVYHCARDGTSSFDYWGQGTLVTVSS
# VL: B1 VL with S30R, R31K, G50A, I85T
# notes: as for B1
# B3: 72G9 (antibody, V domains shown)
# VH: EVQLVESGGGLVKPGGSLRLSCAASGFTFSSYSMNWVRQAPGKGLEWVSSISGSSSYIYYADSVKGRFTISRDNAKNSLYLQMNSLRAEDTAVYFCARGGSRGFDPWGQGTLVTVSS
# VL: B1 VL with V11L, G28S, S30T, R31S, W32Y, A34N, G50T, I85T, A91S, N92H
# notes: as for B1
# B4: 194A4 (antibody, V domains shown)
# VH: QVQLVQSGTEVKKPGASLKVSCKASGYTFTVYYLNWVRQAPGQGLEWMGWINPNSGGTNYAQKFQGRVTMTRDTSISTAYMELSRLRSDDTAVYYCARGYDILTGWGQGTLVTVSS
# VL: EIVLTQSPGTLSLSPGERATLSCRASRGVSNIYLAWYQQKPGQAPRLLIYGASNRATGIPDRFSGSGSGTDFTLTISRLEPEDFAVYYCQHNDYSMFTFGPGTKVDIK
# notes: as for B1
# B5: 4B1 (antibody, V domains shown)
# VH: QVQLQESGPGLVKPSETLSLTCSVSGDSISSYSWSWIRQPAGKGLEWIGRIYTSGSTNYIPSLKSRITMSVDTSKKQFSLKLSSVTAADTAVYYCARDLKSSGCLFFDYWGQGTLVTVSS
# VL: DIQMTQSPSSLSASVGDRVTITCRASHTIRTYLNWYQQKPGKAPKLLIYAASSLQSGVPSRINGSGSGTDFTLTITNLQPEDFATYYCQQSYNISFTFGPGTKVDIK
# notes: as for B1
# B6: 4A2 (antibody, V domains shown)
# VH: QVQLVQSGTEVKKPGASVKVSCKASGYTFTNYDINWVRQATGQGLEWMGWMHPNSGNTGYAQKFQGRVTLTRNTSISTAYMELSSLRSEDTAVYYCASSSGWYYFDYWGQGTLVTVSS
# VL: DIVMTQSPDSLAVSLGERATINCKSSQSILHSSNNNNYLAWFQQKPGQPPKLLLYWASTRESGVPDRFSGSGSGTDFTLTISSLQPEDVAVYYCQQYYNTPVTFGPGTKVGIK
# notes: as for B1
# B7: 184E7 (antibody, V domains shown)
# VH: QVQLVQSGAEVKTPGASVKVSCRASGYTFTSYNMHWVRQVPGQGLEWMGWINPNNGGSNYTQKFQGRVTMTRDTSISTAYMELSRLRSDDTAVYYCARKFGDWGQGTLVTVSS
# VL: DIQMTQSPSSRSASIGERVTITCRASQGISNYLAWIQQKPGTAPKSLIYAASSLQSGVSSRFSGSGFGTDFTITISSVQREDFATYYCQQYNGYPFTFGHGTKVDIK
# notes: as for B1
# Molecular target: T1, Soluble ASGR-1
# Experiment: limited antigen binding assay; biotinylated soluble ASGR-1 coated at 2.5 ng/mL on LumAvidin beads, FACS
# Protocol: To assess antibody and antigen interaction strength (relative binding affinity), ASGR-1 specific, ligand competing antibody hybridoma supernatants were tested in a limiting antigen binding assay. Titrated amounts of recombinant, soluble ASGR-1 biotinylated protein was incubated with streptavidin-coated LumAvidin Beads® for 45 minutes in the dark at room temperature and washed twice. Beads were resuspeneded in FACS buffer containing Stabilguard® and 0.05% Sodium Azide. Antigen-bound beads were then incubated with normalized hybridoma supernatant sample or controls for 18 hours in the dark at room temperature, washed twice, incubated with Alexa Fluor® 488 IgG fragment-specific detection antibody for 15 minutes in the dark at room temperature, washed once and finally resuspended in FACS buffer. Samples were analyzed using an Intellicyt iQue™ Screener Platform. FACS buffer supplemented with 1 mM Calcium Chloride was used in all steps. […] In this assay method, the antibody binding signal correlates with antibody affinity. Antibody binding data for a representative antigen coating concentration that fell in the linear range of the instrument signal detection is shown in Table 7.2. The degree of antibody binding to the target (ASGR-1) correlates with the measured fluorescent intensity and thus allows a relative comparison of affinities across the panel.
row,FACS Geomean [FACS Geomean],Binder
1,2990,B1
2,22600,B2
3,34000,B3
4,38900,B4
5,10100,B5
6,16600,B6
7,40200,B7
